The target in one test is GST-TcdB-C(1500-2366) (Clostridium difficile, UniProt P18177 1500-2366). Briefly: pull-down.
Test [1] has as its target Clostridium difficile toxin B, His-tagged (TcdB-His) (Clostridium difficile, UniProt P18177 1-2366). Briefly: SPR.

Clostridium difficile toxin B, His-tagged (TcdB-His), sequence (P18177 whole entry): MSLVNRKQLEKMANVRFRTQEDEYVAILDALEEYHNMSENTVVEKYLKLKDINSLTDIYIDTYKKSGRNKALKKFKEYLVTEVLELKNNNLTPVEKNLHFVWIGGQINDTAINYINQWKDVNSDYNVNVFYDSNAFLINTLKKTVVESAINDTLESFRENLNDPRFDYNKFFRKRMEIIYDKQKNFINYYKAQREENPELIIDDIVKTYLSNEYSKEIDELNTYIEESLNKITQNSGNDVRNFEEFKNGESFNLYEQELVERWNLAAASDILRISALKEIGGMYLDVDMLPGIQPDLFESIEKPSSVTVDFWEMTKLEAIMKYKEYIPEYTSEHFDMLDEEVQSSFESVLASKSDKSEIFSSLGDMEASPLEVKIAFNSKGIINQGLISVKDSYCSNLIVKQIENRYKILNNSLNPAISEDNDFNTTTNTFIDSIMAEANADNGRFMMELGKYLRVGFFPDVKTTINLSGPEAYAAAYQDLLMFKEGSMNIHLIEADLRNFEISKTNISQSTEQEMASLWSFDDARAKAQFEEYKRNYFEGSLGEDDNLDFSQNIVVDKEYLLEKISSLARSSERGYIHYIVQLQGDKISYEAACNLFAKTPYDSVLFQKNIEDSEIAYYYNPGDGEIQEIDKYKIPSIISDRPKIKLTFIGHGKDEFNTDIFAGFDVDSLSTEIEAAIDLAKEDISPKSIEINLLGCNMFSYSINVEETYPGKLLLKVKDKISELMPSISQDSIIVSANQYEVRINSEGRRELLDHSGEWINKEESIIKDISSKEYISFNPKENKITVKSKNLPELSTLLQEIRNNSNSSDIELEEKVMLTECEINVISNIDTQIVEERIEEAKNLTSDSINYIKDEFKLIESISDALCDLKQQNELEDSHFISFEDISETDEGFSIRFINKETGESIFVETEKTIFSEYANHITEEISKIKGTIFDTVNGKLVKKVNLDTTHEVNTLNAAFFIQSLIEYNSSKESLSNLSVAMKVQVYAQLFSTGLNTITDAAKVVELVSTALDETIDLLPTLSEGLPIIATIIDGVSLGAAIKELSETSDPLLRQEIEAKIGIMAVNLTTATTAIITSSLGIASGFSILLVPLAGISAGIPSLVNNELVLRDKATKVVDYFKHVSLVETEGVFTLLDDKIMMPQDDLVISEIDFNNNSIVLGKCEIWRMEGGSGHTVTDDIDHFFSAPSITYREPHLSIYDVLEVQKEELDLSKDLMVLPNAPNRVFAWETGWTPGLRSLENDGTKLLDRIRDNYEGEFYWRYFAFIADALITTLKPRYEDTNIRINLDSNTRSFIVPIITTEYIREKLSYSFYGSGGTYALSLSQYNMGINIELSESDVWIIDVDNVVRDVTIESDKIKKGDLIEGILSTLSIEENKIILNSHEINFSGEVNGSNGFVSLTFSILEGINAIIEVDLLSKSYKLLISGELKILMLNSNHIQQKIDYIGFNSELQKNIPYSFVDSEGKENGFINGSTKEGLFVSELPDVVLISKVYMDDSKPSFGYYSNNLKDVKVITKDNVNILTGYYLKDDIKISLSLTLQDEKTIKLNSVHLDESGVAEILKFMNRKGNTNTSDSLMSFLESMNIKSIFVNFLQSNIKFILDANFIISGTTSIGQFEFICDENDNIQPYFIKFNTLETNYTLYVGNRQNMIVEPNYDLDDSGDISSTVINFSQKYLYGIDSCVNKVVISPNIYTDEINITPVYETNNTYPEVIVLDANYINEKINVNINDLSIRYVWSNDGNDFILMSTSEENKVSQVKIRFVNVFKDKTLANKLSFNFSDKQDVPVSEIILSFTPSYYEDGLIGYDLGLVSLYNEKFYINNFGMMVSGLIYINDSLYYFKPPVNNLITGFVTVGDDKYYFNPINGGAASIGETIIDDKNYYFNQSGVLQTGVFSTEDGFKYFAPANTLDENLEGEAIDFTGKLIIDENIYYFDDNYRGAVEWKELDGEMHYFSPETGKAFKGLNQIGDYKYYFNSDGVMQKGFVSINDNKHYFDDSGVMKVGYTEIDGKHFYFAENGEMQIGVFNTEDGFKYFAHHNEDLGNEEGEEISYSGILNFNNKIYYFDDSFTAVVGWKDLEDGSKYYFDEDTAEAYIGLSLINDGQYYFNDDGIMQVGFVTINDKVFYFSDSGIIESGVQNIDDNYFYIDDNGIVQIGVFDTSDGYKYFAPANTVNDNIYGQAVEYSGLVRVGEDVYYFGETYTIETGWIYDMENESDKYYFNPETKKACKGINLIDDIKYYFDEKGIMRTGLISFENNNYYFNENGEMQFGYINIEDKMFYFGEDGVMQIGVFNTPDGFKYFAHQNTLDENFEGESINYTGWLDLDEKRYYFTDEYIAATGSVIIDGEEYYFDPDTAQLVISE
GST-TcdB-C(1500-2366), sequence (P18177 1500-2366): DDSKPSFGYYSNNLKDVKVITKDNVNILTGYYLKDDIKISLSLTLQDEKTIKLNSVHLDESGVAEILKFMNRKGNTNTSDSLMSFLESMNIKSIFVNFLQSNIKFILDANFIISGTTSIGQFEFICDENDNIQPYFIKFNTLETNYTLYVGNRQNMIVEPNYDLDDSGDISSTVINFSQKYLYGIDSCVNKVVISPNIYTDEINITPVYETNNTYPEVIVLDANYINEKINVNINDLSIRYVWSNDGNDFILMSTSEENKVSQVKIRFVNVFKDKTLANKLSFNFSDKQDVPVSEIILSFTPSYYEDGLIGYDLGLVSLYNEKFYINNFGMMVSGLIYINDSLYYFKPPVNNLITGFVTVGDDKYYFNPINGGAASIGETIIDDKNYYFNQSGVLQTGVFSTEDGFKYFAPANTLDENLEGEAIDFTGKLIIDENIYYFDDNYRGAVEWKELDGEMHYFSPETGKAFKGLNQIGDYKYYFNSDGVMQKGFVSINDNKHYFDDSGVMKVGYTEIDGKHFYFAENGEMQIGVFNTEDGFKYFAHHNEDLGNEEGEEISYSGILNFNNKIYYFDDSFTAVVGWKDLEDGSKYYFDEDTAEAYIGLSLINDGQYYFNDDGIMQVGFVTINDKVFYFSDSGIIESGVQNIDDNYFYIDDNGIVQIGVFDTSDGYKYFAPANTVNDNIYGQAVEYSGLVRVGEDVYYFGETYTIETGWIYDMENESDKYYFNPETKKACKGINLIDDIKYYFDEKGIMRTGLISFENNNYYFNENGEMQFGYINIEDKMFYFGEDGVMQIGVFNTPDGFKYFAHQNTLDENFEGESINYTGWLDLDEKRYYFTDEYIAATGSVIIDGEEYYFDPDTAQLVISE

B1: CSPG4-N(30-640)-Fc (Fc fusion)
chain: ASFFGENHLEVPVATALTDIDLQLQFSTSQPEALLLLAAGPADHLLLQLYSGRLQVRLVLGQEELRLQTPAETLLSDSIPHTVVLTVVEGWATLSVDGFLNASSAVPGAPLEVPYGLFVGGTGTLGLPYLRGTSRPLRGCLHAATLNGRSLLRPLTPDVHEGCAEEFSASDDVALGFSGPHSLAAFPAWGTQDEGTLEFTLTTQSRQAPLAFQAGGRRGDFIYVDIFEGHLRAVVEKGQGTVLLHNSVPVADGQPHEVSVHINAHRLEISVDQYPTHTSNRGVLSYLEPRGSLLLGGLDAEASRHLQEHRLGLTPEATNASLLGCMEDLSVNGQRRGLREALLTRNMAAGCRLEEEEYEDDAYGHYEAFSTLAPEAWPAMELPEPCVPEPGLPPVFANFTQLLTISPLVVAEGGTAWLEWRHVQPTLDLMEAELRKSQVLFSVTRGARHGELELDIPGAQARKMFTLLDVVNRKARFIHDGSEDTSDQLVLEVSVTARVPMPSCLRRGQTYLLPIQVNPVNDPPHIIFPHGSLMVILEHTQKPLGPEVFQAYDPDSACEGLTFQVLGTSSGLPVERRDQPGEPATEFSCRELEAGSLVYVHRGGPAQDLTF
In the case of B1, in the test with GST-TcdB-C(1500-2366), the binding result is listed as “binds”.

B2: CSPG4-N(401-560)-Fc (Fc fusion)
chain: LAPEAWPAMELPEPCVPEPGLPPVFANFTQLLTISPLVVAEGGTAWLEWRHVQPTLDLMEAELRKSQVLFSVTRGARHGELELDIPGAQARKMFTLLDVVNRKARFIHDGSEDTSDQLVLEVSVTARVPMPSCLRRGQTYLLPIQVNPVNDPPHIIFPHG
Consider B2, for which the dissociation constant Kd in test [1] came out at 28.9 ± 0.7 nM.

These data come from paper PMC4650570 (Cell Research, 2014).
